According to patent publication US8815236B2, “Method for treating multiple sclerosis and crohn's disease” (Biogen Idec MA, Inc., priority 2003, dated 2014):

Tests used:
Assay type in all cases: physicochemical
[1] = 65 mg/mL liquid formulation: appearance and SEC; conditions: 65 mg/mL in 10 mM sodium phosphate, 140 mM sodium chloride, pH 6, about 0.06% polysorbate 80
[2] = Protein precipitation facilitated by trace levels of silicone (lubricated polypropylene syringe); conditions: adjusted to 0.02% (w/v) polysorbate 80
Description: The silicone oil was introduced into the product upon use of standard lubricated polypropylene syringes equipped with siliconized rubber stoppers. […] The aggregation, deamidation and subsequent precipitation caused by denaturation at the air-liquid interface has become more discernable problematic with the drug being shipped to more clinical sites. Both causes of protein precipitation have been resolved by the addition of polysorbate 80 at a concentration of 0.02% (w/v).
An evaluation of the ability of 0.02% (w/v) polysorbate 80 to inhibit the protein precipitation facilitated by trace levels of silicone was conducted. […] The material was allowed to stand for several hours at room temperature.

[3] = Antibody aggregation with partially degraded polysorbate 80 (shaking and siliconized syringes); conditions: control samples without polysorbate 80, same conditions
Experimental: This material was diluted one-to-one with a 10 mg/mL solution of AN100226 in Formulation #2 resulting in a solution containing 0.01% (w/v) polysorbate 80 and 50% of the maximum level of degraded polysorbate 80.

[4] = Lyophilized formulation reconstituted to 100 mg/mL: reconstitution, appearance, SEC; conditions: immediately after lyophilization and after 2 wks at 40 deg
Experimental: The solution was filled at 5 mL per vial into 10 mL borosilicate glass vials and fitted with gray butyl rubber lyophilization stoppers. Lyophilization was done using a Virtis Gensis model lyophilizer. The product was frozen at a shelf temperature of −60° C. for 10 hours and then the shelf temperature was raised to −40°. Primary drying was performed at a shelf temperature of −10° C. and a chamber pressure of 100 mTorr for 20 hours. […] The vials were stoppered under vacuum.
The samples were analyzed immediately after lyophilization and after 2 wks of storage in the lyophilized form at 40 deg.

[5] = Agitation-induced precipitation: vials shaken at 150 rotations per minute

natalizumab
appearance of solution [1]: slightly opalescent but without particulates
particles after 0.2 μm filtration into 5-mL vial ([2]; after syringe exposure, after several days): substantially free of particles
precipitation by visual inspection ([2]; lubricated 60 mL polypropylene syringe, several hours at room temperature): no precipitation
precipitation of the antibody [3]: significant precipitation
appearance of reconstituted solutions ([4]; 100 mg/mL reconstituted): clear and colorless with an absence of particulate material
reconstitution times ([4]; lyophilized from 5 mM histidine, 20 mg/mL sucrose, 0.02% polysorbate 80, pH 6, 1 mL WFI to 100 mg/mL): immediate
appearance of vials after shaking ([5]; 5 mg/mL, Lot No. AN100226-0003 with 0.02% (w/v) polysorbate 80 added, 150 rotations per minute, room temperature, within 3 hours): remained clear and free of particles
particle formation on shaking ([5]; vials completely filled, absence of polysorbate 80, shaken for extended periods of time): without additional particle formation being induced
